Values quoted from earlier work as cited in PMC5578180.

System: His193
Assay: kinetics
Conditions: folded, green (pre-photoconversion) state of LEA under illumination

For “Least Evolved Ancestor (LEA), ancestral reconstructed green-to-red photoconvertible GFP-like fluorescent protein (synthetic construct (ancestral gene reconstruction of Faviina coral GFP-like proteins; lineage of the great star coral, printed as Monastrea cavernosa); A60V;Q62H;T69A;D74H;T104R;S105N;Y116N;M154T;V157I;R194C;R216H;del217;L219G)”, the pKa is listed as 7.5.
